One data set addresses HIV-D (synthetic construct). The data set is described as follows: ELONA; apparent Kd, phage ELISA, Zn2+. The conditions noted are these: protein: virion; label: biotin.
The target of data set [1] is T1, 7N (synthetic construct). The data set is described as follows: ELONA; apparent Kd comparable with Zif268, weakest of the three; phage ELISA. The conditions noted are these: protein: virion.
In another data set the target is HIV-E (synthetic construct). The data set is described as follows: ELONA; apparent Kd, phage ELISA; F3 subsite printed differently in original table. As to conditions: protein: virion; label: biotin.
The target in data set [2] is T1, 7N. Briefly: EMSA. The conditions noted are these: tags: Promega TNT; label: radiolabel.
Data set [3] deals with T2, 6F6 (7N-4/3 six-finger) (synthetic construct). Briefly: EMSA; almost no affinity; 8 mismatches. As to conditions: tags: Promega TNT; label: radiolabel.
For a further data set, the target named is HIV-C (synthetic construct). Briefly: ELONA; apparent Kd, phage ELISA, Zn2+. As to conditions: protein: virion; label: biotin.
Data set [4] addresses T2, 6F6 (7N-4/3 six-finger). Briefly: EMSA; almost no affinity; 11 mismatches. As to conditions: tags: Promega TNT; label: radiolabel.
Data set [5] addresses T1, 7N. The data set is described as follows: EMSA; roughly similar apparent Kd to 4/3. As to conditions: tags: Promega TNT; label: radiolabel.
In data set [6] the target is T2, 6F6 (7N-4/3 six-finger). Briefly: EMSA; affinity relative to 4/3 or 7N alone. The conditions noted are these: tags: Promega TNT; label: radiolabel.
The target of a further data set is HIV-G (synthetic construct). The data set is described as follows: ELONA; apparent Kd, phage ELISA, Zn2+. The conditions noted are these: protein: virion; label: biotin.
The next data set concerns the target HIV-F (synthetic construct). The data set is described as follows: ELONA; apparent Kd, phage ELISA, Zn2+. The conditions noted are these: protein: virion; label: biotin.
Data set [7] concerns the target T1, 7N. The data set is described as follows: EMSA; intact t2 site. The conditions noted are these: tags: Promega TNT; label: radiolabel.
The target of data set [8] is T2, 6F6 (7N-4/3 six-finger). The data set is described as follows: EMSA; almost no affinity; 3 mismatches. As to conditions: tags: Promega TNT; label: radiolabel.

10 molecules from patent US20040039175, “Modulation of viral gene expression by engineered zinc finger proteins” (published 2004) can be followed below.

T2 sequence (chain, as listed by the source): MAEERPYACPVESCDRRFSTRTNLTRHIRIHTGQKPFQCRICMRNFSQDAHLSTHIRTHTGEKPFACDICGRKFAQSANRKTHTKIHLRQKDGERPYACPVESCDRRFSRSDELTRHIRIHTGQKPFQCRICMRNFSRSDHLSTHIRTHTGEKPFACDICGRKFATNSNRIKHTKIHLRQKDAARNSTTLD

B1: HIV-D site (dsDNA)
DNA 1: GCAGCTGCTT
DNA 2: AAGCAGCTGC
For the molecule B1, the Kd with HIV-D is 4 nM.

B2: t2 (dsDNA)
DNA 1: TAATGAGAT
DNA 2: ATCTCATTA
In the case of B2, the Kd with 7N [1] is about 1 nM.

B3: HIV-E site (dsDNA)
DNA 1: ATCTGAGCCT
DNA 2: AGGCTCAGAT
As to B3, the Kd with HIV-E was determined as 36.6 nM.

B4: IE110 probe (dsDNA)
DNA 1: TGGGTTCCGGGTATGGTAATGAGTTTCTTC
DNA 2: GAAGAAACTCATTACCATACCCGGAACCCA
Regarding B4, the binding result is on record as “binds” in the data set with 7N [2] and “no binding” with 6F6 (7N-4/3 six-finger) [3].

B5: HIV-C site (dsDNA)
DNA 1: GATGCTGCAT
DNA 2: ATGCAGCATC
As to B5, in the data set with HIV-C, the Kd was determined as 13.7 nM.

B6: H2B probe (dsDNA)
DNA 1: ATAGAATCGCTTATGCAAATAAGGTGAAGA
DNA 2: TCTTCACCTTATTTGCATAAGCGATTCTAT
As to B6, the binding result in the data set with 6F6 (7N-4/3 six-finger) [4] is “no binding”.

B7: T24 probe (dsDNA)
DNA 1: CCGCCGGATCGGGCGGTAATGAGATGCCATG
DNA 2: CATGGCATCTCATTACCGCCCGATCCGGCGG
Regarding B7, the binding result with 7N [5] is “binds”. The molecule further had a binding signal with 6F6 (7N-4/3 six-finger) [6] of at least 25 fold.

B8: HIV-G site (dsDNA)
DNA 1: GCTAACTAGG
DNA 2: CCTAGTTAGC
Consider B8, for which the Kd with HIV-G was 40.3 nM.

B9: HIV-F site (dsDNA)
DNA 1: GGAGCTCTCT
DNA 2: AGAGAGCTCC
Turning to B9, the Kd with HIV-F is 13.3 nM.

B10: 68K probe (dsDNA)
DNA 1: CTTCCCGGTTCGGCGGTAATGAGATACGAG
DNA 2: CTCGTATCTCATTACCGCCGAACCGGGAAG
For the molecule B10, the binding result with 7N [7] is on record as “binds”; with 6F6 (7N-4/3 six-finger) [8], “no binding”.
